± gives the uncertainty stated by the source.
B1: WW domain-binding protein 4, residues 8 to 43; numbered along this chain, O75554 (parent)
chain: QPKKFCDYCKCWIADNRPSVEFHERGKNHKENVAKR

Variants of: B1
Experiment: abundance fitness (aPCA) (normalised: wild type 0, dead -1); higher = more abundant; growth selection in yeast, the domain comes from the species named
Conditions: Homo sapiens

Abundance fitness, by site and new letter:
E31: G -0.153 ± 0.071; M -0.065 ± 0.11; V -0.11 ± 0.086; D -0.093 ± 0.32; R -0.103 ± 0.063; Q -0.072 ± 0.14; P -0.332 ± 0.087; H -0.29 ± 0.2; L -0.229 ± 0.071; T -0.259 ± 0.12
R36: S -0.032 ± 0.097; K 0.058 ± 0.12; P 0.211 ± 0.15; Q -0.304 ± 0.2; A 0.023 ± 0.11
K30: V -0.036 ± 0.07; E 0.053 ± 0.07; S -0.117 ± 0.069; W -0.345 ± 0.071; C 0.022 ± 0.083; D -0.265 ± 0.12; A -0.101 ± 0.069; Y -0.391 ± 0.15; I 0.085 ± 0.084; R 0.049 ± 0.078
H23: N -0.967 ± 0.27; C -0.561 ± 0.11; L -0.838 ± 0.082; R -0.724 ± 0.061; W -0.601 ± 0.12; P -0.443 ± 0.11; I -0.884 ± 0.41; E -0.6 ± 0.15; A -0.739 ± 0.083; S -0.549 ± 0.076; K -0.44 ± 0.15
F22: Y -0.224 ± 0.12; L 0.051 ± 0.073; C 0.089 ± 0.1; Q 0.238 ± 0.081; P -0.061 ± 0.1; D 0.132 ± 0.17; K -0.129 ± 0.12; R -0.075 ± 0.064; T 0.163 ± 0.074; M 0.235 ± 0.089; S -0.01 ± 0.075
N32: A 0.038 ± 0.08; S -0.086 ± 0.075; R -0.1 ± 0.084; H -0.172 ± 0.11; K -0.111 ± 0.11; F -0.405 ± 0.17; Y -0.289 ± 0.14; T -0.142 ± 0.13; D -0.49 ± 0.23; V -0.294 ± 0.075; P -0.473 ± 0.32
K27: Q -0.032 ± 0.096; S -0.128 ± 0.1; A 0.026 ± 0.069; F -0.189 ± 0.13; E 0.036 ± 0.073; G -0.096 ± 0.057
E24: F -0.181 ± 0.32; G -0.364 ± 0.058; A -0.303 ± 0.072; R -0.497 ± 0.06; K -0.187 ± 0.14
N16: S -0.177 ± 0.082; M 0.024 ± 0.084; E 0.027 ± 0.082; L -0.175 ± 0.065; A 0.135 ± 0.064; Y -0.06 ± 0.14; F -0.143 ± 0.36; H -0.105 ± 0.091; D -0.233 ± 0.11; Q -0.073 ± 0.094; K 0.102 ± 0.12; V -0.14 ± 0.057; W -0.268 ± 0.065
V20: E -0.127 ± 0.065; I -0.275 ± 0.2; Y -0.63 ± 0.14; C -0.574 ± 0.12; A 0.05 ± 0.069; H -0.031 ± 0.15; N -0.033 ± 0.17; P -0.512 ± 0.083; R -0.226 ± 0.068; W -0.189 ± 0.077; M -0.015 ± 0.4; S -0.336 ± 0.081
H29: S -0.542 ± 0.083; C -0.464 ± 0.25; A -0.309 ± 0.096; M -0.475 ± 0.25; W -0.481 ± 0.11; D -0.995 ± 0.45; E -0.325 ± 0.11; N -0.444 ± 0.099
V33: G -0.22 ± 0.058; R -0.149 ± 0.066; E 0.022 ± 0.12; I -0.404 ± 0.23; K -0.278 ± 0.076; L -0.205 ± 0.075; Q -0.195 ± 0.12; F -0.182 ± 0.14; N -0.572 ± 0.24
W12: I 0.139 ± 0.15; A -0.209 ± 0.078; K -0.557 ± 0.14; H 0.339 ± 0.3; M 0.075 ± 0.11; C -0.437 ± 0.097; Q 0.077 ± 0.12; R -0.537 ± 0.064
A34: C -0.135 ± 0.1; I 0.089 ± 0.33; P -0.309 ± 0.26; L -0.201 ± 0.096; H -0.001 ± 0.12; Q -0.289 ± 0.14; R -0.11 ± 0.061; F -0.385 ± 0.13; K -0.098 ± 0.13; V -0.088 ± 0.078; T 0.022 ± 0.09; S 0.055 ± 0.14; E -0.001 ± 0.13
G26: Q 0.038 ± 0.085; V -0.18 ± 0.068; C -0.197 ± 0.097; D 0.015 ± 0.13; T -0.123 ± 0.089; L -0.28 ± 0.079; P -0.547 ± 0.11; A -0.072 ± 0.058
R17: D 0.068 ± 0.096; N -0.019 ± 0.11; H -0.148 ± 0.14; E -0.011 ± 0.067; Q -0.008 ± 0.12; V 0.008 ± 0.067; G 0.005 ± 0.061; C 0.118 ± 0.099; P 0.253 ± 0.078; M 0.176 ± 0.085; A 0.036 ± 0.063; L -0.015 ± 0.073; Y -0.235 ± 0.11; S 0.052 ± 0.073
E21: S -0.167 ± 0.074; H -0.475 ± 0.32; L -0.19 ± 0.069; W -0.295 ± 0.07; D -0.15 ± 0.093; C -0.36 ± 0.094; T -0.034 ± 0.085; A -0.163 ± 0.063; M -0.332 ± 0.11; I -0.71 ± 0.36; F -0.437 ± 0.25; P -0.467 ± 0.096; V -0.289 ± 0.062
S19: N -0.204 ± 0.11; V -0.451 ± 0.071; Q -0.218 ± 0.094; D -0.13 ± 0.082; R -0.574 ± 0.063; A -0.058 ± 0.065; C -0.516 ± 0.12; H -0.269 ± 0.29; K -0.379 ± 0.097; M -0.07 ± 0.1; L -0.467 ± 0.062
K4: E -0.355 ± 0.08; L -0.366 ± 0.072; G -0.497 ± 0.07; D -0.573 ± 0.15; W -1.03 ± 0.075; N -0.226 ± 0.1; V -0.507 ± 0.07; R -0.374 ± 0.066; M 0.13 ± 0.082
Y8: P 0.343 ± 0.096; S -0.448 ± 0.19; M 0.054 ± 0.093; T -0.07 ± 0.084; R -0.12 ± 0.062; L -0.26 ± 0.1
P2: Q 0.179 ± 0.099; D 0.365 ± 0.25; L 0.045 ± 0.096; R 0.047 ± 0.062; V 0.06 ± 0.066; M 0.615 ± 0.2; T 0.109 ± 0.11; S 0.115 ± 0.075; K 0.294 ± 0.16; C -0.839 ± 0.18; A 0.007 ± 0.075
Q1: G -0.548 ± 0.099; H -0.275 ± 0.089; R -0.979 ± 0.094; M -0.242 ± 0.075; W -1.47 ± 0.32; C -1.36 ± 0.41; A -0.931 ± 0.23; I 0.404 ± 0.17; V -0.257 ± 0.094
F5: Y -0.087 ± 0.17; M -0.085 ± 0.18; Q -0.328 ± 0.084; W -1.06 ± 0.087; N -0.174 ± 0.1; K -0.502 ± 0.09; G -0.786 ± 0.066; P -0.551 ± 0.1
C11: G -0.059 ± 0.065; H -0.335 ± 0.27; I 0.002 ± 0.098; M 0.084 ± 0.14; W -0.589 ± 0.12; D 0.144 ± 0.16; V 0.066 ± 0.068
K35: A 0.216 ± 0.093; Q -0.093 ± 0.1; W 0.017 ± 0.12; C -0.951 ± 0.32; N -0.085 ± 0.14
D15: V -0.313 ± 0.068; C -0.48 ± 0.086; Q -0.262 ± 0.27; G -0.09 ± 0.055; S -0.236 ± 0.074; A -0.145 ± 0.07; T -0.075 ± 0.096; W -0.391 ± 0.065; R -0.328 ± 0.068; H -0.37 ± 0.24
D7: L -0.209 ± 0.12; Y -0.286 ± 0.33; E 0.007 ± 0.11; K -0.272 ± 0.16; V -0.6 ± 0.1; M -0.241 ± 0.37; G -0.173 ± 0.069; P -0.529 ± 0.2; T 0.154 ± 0.13; S -0.131 ± 0.23; W -0.649 ± 0.12
A14: P -0.19 ± 0.082; S -0.343 ± 0.082; V -0.39 ± 0.077; M -0.602 ± 0.14; R -0.381 ± 0.07; Q -0.264 ± 0.28; E -0.048 ± 0.098
R25: P -0.428 ± 0.072; S -0.037 ± 0.073; D 0.099 ± 0.095; E -0.039 ± 0.07; C -0.133 ± 0.097; Y -0.357 ± 0.14; T 0.014 ± 0.081; V 0.003 ± 0.073; M 0.079 ± 0.086
K3: P -0.119 ± 0.076; S -0.102 ± 0.07; Y 0.045 ± 0.14; A -0.194 ± 0.062; W -0.997 ± 0.1; H -0.569 ± 0.19; T -0.275 ± 0.11; C -1.59 ± 0.17; L -0.193 ± 0.066; G -0.051 ± 0.058; D -0.025 ± 0.12
C9: A -0.787 ± 0.073; D -0.541 ± 0.11; V -1.28 ± 0.14; M -1.23 ± 0.34; E -0.603 ± 0.098; L -1.13 ± 0.14; Q -0.701 ± 0.12; S -0.116 ± 0.13; G -0.525 ± 0.061; T -0.635 ± 0.16
K10: F -0.409 ± 0.21; R -0.088 ± 0.064; C -0.325 ± 0.092; D 0.061 ± 0.18; V -0.551 ± 0.088; M -0.34 ± 0.25; A -0.126 ± 0.058; P -0.482 ± 0.23; W -0.748 ± 0.091
P18: E -0.048 ± 0.073; S -0.192 ± 0.086; K -0.175 ± 0.13; C -0.113 ± 0.086; Y -0.194 ± 0.096; I -0.349 ± 0.12; M -0.002 ± 0.073; W -0.522 ± 0.092; N -0.177 ± 0.1; Q -0.12 ± 0.083; A -0.108 ± 0.061; H -0.124 ± 0.14
C6: L -0.862 ± 0.098; P -0.466 ± 0.084; K -0.216 ± 0.26; N -0.919 ± 0.33; T -0.521 ± 0.085
I13: N -0.308 ± 0.16; H -0.368 ± 0.12; K -0.853 ± 0.12; Y 0.334 ± 0.19; G -0.449 ± 0.071; P -0.488 ± 0.069; M 0.209 ± 0.082; R -0.532 ± 0.077; E -0.226 ± 0.08; A -0.531 ± 0.091
N28: V -0.016 ± 0.088; M 0.326 ± 0.16; W 0.147 ± 0.1; T -0.102 ± 0.11; P -0.047 ± 0.11; S -0.001 ± 0.17; G 0.109 ± 0.081
